# In patent US20240209093A1 (I MAB BIOPHARMA, published 2024):
# Where a chain is given by its changes, count along the chain named.
# T1: His-tagged human TIGIT-ECD protein (human, UniProt Q495A1 22-141)
# T1 construct: extracellular domain; also called hTIGIT-his
# T1 sequence (looked up): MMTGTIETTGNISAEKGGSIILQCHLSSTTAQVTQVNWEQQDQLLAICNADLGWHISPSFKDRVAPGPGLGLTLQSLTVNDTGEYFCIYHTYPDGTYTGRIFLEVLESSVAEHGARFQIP
# B1: ALP-Tan-3p-93 (VHH)
# VHH: QVQLVESVGGLVQPGDSLRLSCLASGRTFTFRHYVMGWFRQAPGKEREFVAAISWSGSGSYYADSVKGRFTISRDNSKNMVFLQMNGLKPEDTAVYYCAADMTTRMSQASREYDYWGQGTQVTVSS
# B2: ALP-Tan-3p-112 (VHH)
# VHH: QVQLVESGGGLVQPGGSLRLSCAASGSIFSSGTNFSDSKIDWYRQAPGKQRDWIAGIFSTGSTIYEDSVKGRFAISRDNAKNMGYLQMNSLKPEDTAVYYCRVIGRGILAWGQGTQVTVSS
# B3: ASP-3P-46 (VHH)
# VHH: QVQLVESGGGLVQPGGSLRLSCAASARSINGMEWYRQAPGERRELVAGITAGGSAYYTDTVKGRFTISRDNAENTGYLQMNSLSPDDTAVYYCRRQYGPNWYWGQGTQVTVSS
# notes: also called ASP-30-46
# B4: TIGIT-CL-93-VH6 (bispecific antibody, human IgG1, kappa)
# heavy: not shown
# light: DIVMTQSPSSLSASVGDRVTITCKASQDVDTAVAWYQQKPGKAPKLLIYWASARHTGVPSRFSGSGSGTDFTFTISSLQPEDIATYYCQQYSNYPLTFGQGTKLEIKRTVAAPSVFIFPPSDEQLKSGTASVVCLLNNFYPREAKVQWKVDNALQSGNSQESVTEQDSKDSTYSLSSTLTLSKADYEKHKVYACEVTHQGLSSPVTKSFNRGECGGGGSGGGGSGGGGSGGGGSEVQLVESGGGLVQPGGSLRLSCAASGFTFTFRHYVMGWFRQAPGKEREFVAAISWSGSGSYYADSVKGRFTISRDNSKNTVYLQMNSLRAEDTAVYYCAADMTTRMSQASREYDYWGQGTLVTVSS
# notes: Two 93-VH6 fused to the C-termini of the anti-TIGIT light chains; also called TIGIT-CL-PD-L1 format
# B5: TIGIT-Fc-93-VH6 (bispecific antibody, human IgG1, kappa)
# heavy: not shown
# light: DIVMTQSPSSLSASVGDRVTITCKASQDVDTAVAWYQQKPGKAPKLLIYWASARHTGVPSRFSGSGSGTDFTFTISSLQPEDIATYYCQQYSNYPLTFGQGTKLEIKRTVAAPSVFIFPPSDEQLKSGTASVVCLLNNFYPREAKVQWKVDNALQSGNSQESVTEQDSKDSTYSLSSTLTLSKADYEKHKVYACEVTHQGLSSPVTKSFNRGEC
# notes: Two 93-VH6 fused to the C-termini of the anti-TIGIT heavy chains; also called TIGIT-Fc-PD-L1 format
# B6: TIGIT-Fc-93-VH6*2 (bispecific antibody, human IgG1, kappa)
# heavy: not shown
# light: B5 light
# notes: Four 93-VH6, two in tandem at the C-terminus of each anti-TIGIT heavy chain; also called TIGIT-Fc-PD-93-VH6*2; TIGIT-Fc-PD-L1*2 format
# B7: TIGIT antibody (antibody, V domains shown)
# VH: EVKLVESGGGLVQPGGSLRLSCAASGFTFSDYYMYWVRQAPGKRLEWVASITKGGGSTYYPDTLKGRFTISRDNAKNSLYLQMNRLRAEDTAVYYCARQSSYDFVMDYWGQGTTVTVSS
# VL: DIVMTQSPSSLSASVGDRVTITCKASQDVDTAVAWYQQKPGKAPKLLIYWASARHTGVPSRFSGSGSGTDFTFTISSLQPEDIATYYCQQYSNYPLTFGQGTKLEIK
# notes: Only variable domains are tied to the parental antibody; also called TIGIT Ab; parental TIGIT antibody
# B8: ALP-Tan-3p-93 (chimeric) (antibody, V domains shown, not shown: a dimerising Fc or GST; small tags and cut ends)
# VH: B1 VHH
# notes: Called chimeric; also called ALP-Tan-3p-93 chimeric antibody
# B9: 93-VH-8 (VHH)
# VHH: EVQLVESGGGLVQPGGSLRLSCAASGRTFTFRHYVMGWFRQAPGKGLEFVAAISWSGSGSYYADSVKGRFTISRDNSKNTVYLQMNSLRAEDTAVYYCAADMTTRMSQASREYDYWGQGTLVTVSS
# notes: Humanized
# B10: 93-VH-2 (VHH)
# VHH: B9 VHH with R27F, F39V, G46E, L47R, F49W, A51S
# notes: Humanized
# B11: 93-VH-5 (VHH)
# VHH: B9 VHH with R27F, G46E, L47R, V81L, A100K
# notes: Humanized
# B12: 93-VH-3 (VHH)
# VHH: B9 VHH with R27F, V81L, A100K
# notes: Humanized
# B13: 93-VH-9 (VHH)
# VHH: B9 VHH with V81L
# notes: Humanized
# B14: 93-VH-7 (VHH)
# VHH: B9 VHH with R27F, V81L
# notes: Humanized
# B15: 93-VH-4 (VHH)
# VHH: B9 VHH with R27F
# notes: Humanized
# B16: 112-VHH5-PTM (VHH)
# VHH: B2 VHH with Q1E, N34Q, I54V, M83S, G84L, K92R, P93A, Q116L
# notes: Humanized
# B17: 112-VHH7-PTM (VHH)
# VHH: B2 VHH with Q1E, N34Q, D52E, G84L, K92R, P93A, Q116L
# notes: Humanized
# B18: 112-VHH3-PTM (VHH)
# VHH: EVQLVESGGGLVQPGGSLRLSCAASGSIFSSGTQFSDSKIDWYRQAPGKQREWVSGIFSTGSTIYEDSVKGRFTISRDNAKNSLYLQMNSLRAEDTAVYYCRVIGRGILAWGQGTLVTVSS
# notes: Humanized
# B19: ALP-Tan-3p-112 (chimeric) (antibody, V domains shown, not shown: a dimerising Fc or GST; small tags and cut ends)
# VH: B2 VHH
# notes: Called chimeric
# B20: 34C5-L-93VH6-IgG1 (bispecific antibody)
# heavy: not shown
# light: DIQMTQSPSSLSASVGDRVTITCRASQDISDYLNWYQQKPGKAPKLLIYYISRLHSGVPSRFSGSGSGTDYTLTISSLQPEDFATYYCQQGHTLPWTFGGGTKVEIKGGGGSGGGGSGGGGSGGGGSEVQLVESGGGLVQPGGSLRLSCAASGFTFTFRHYVMGWFRQAPGKEREFVAAISWSGSGSYYADSVKGRFTISRDNSKNTVYLQMNSLRAEDTAVYYCAADMTTRMSQASREYDYWGQGTLVTVSSRTVAAPSVFIFPPSDEQLKSGTASVVCLLNNFYPREAKVQWKVDNALQSGNSQESVTEQDSKDSTYSLSSTLTLSKADYEKHKVYACEVTHQGLSSPVTKSFNRGEC
# notes: Symmetric 'two to two' anti-CD47/PD-L1 bispecific
# B21: 13H3 (antibody, V domains shown)
# VH: EVQLVESGGGLVKPGGSLRLSCAASGLTFERAWMNWVRQAPGKGLEWVGRIKRKTDGETTDYAAPVKGRFSISRDDSKNTLYLQMNSLKTEDTAVYYCAGSNRAFDIWGQGTMVTVSS
# VL: DIVMTQSPDSLAVSLGERATINCKSSQSVLYAGNNRNYLAWYQQKPGQPPKLLINQASTRASGVPDRFSGSGSGTEFTLIISSLQAEDVAIYYCQQYYTPPLAFGGGTKLEIK
# notes: also called anti-CD47 antibody 13H3; parental CD47 antibody 13H3
# B22: 34C5 (antibody, V domains shown)
# VH: QVQLVQSGAEVKKPGSSVKVSCKASGYTFSSYYMHWVRQAPGQGLEWMGEINPNNARINFNEKFKTRVTLTVDKSTSTAYMELSSLRSEDTAVYYCTRGYYRYGAWFGYWGQGTLVTVSS
# VL: DIQMTQSPSSLSASVGDRVTITCRASQDISDYLNWYQQKPGKAPKLLIYYISRLHSGVPSRFSGSGSGTDYTLTISSLQPEDFATYYCQQGHTLPWTFGGGTKVEIK
# notes: also called anti-CD47 antibody 34C5; parental CD47 antibody 34C5
# Biological target: T2, human PD-L1-his (human, UniProt Q9NZQ7 19-238)
# T2 construct: also called hPD-L1-his; human His-PD-L1
# T2 sequence (Q9NZQ7 19-238 limits assumed): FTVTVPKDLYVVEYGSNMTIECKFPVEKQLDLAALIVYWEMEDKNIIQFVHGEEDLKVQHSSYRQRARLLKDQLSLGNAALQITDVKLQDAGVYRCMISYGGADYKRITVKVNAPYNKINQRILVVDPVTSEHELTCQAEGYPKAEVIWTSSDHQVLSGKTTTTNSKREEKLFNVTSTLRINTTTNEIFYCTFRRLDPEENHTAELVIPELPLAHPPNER
# Test: SPR, Biacore T200
Kd,koff,kon,Binder
0.459 nM,7.8e-05 s⁻¹,154000 M⁻¹ s⁻¹,B1
0.479 nM,0.000235 s⁻¹,490000 M⁻¹ s⁻¹,B2
1.81 nM,0.00128 s⁻¹,710000 M⁻¹ s⁻¹,B3

# Biological target: T1, His-tagged human TIGIT-ECD protein
# Test: ELISA on His-tagged human TIGIT
row,EC50 (read off the curve),Binder
1,~0.5 nM,B4
2,~0.5 nM,B5
3,~0.6 nM,B6
4,~0.2 nM,B7

# Biological target: T2, human PD-L1-his
# Test: SPR, Biacore, full kinetics, antigen 100-1.5625 nM
Kd,koff,kon,Binder
0.559 nM,0.000107 s⁻¹,192000 M⁻¹ s⁻¹,B8
1.8 nM,0.000239 s⁻¹,133000 M⁻¹ s⁻¹,B9
26.3 nM,0.00162 s⁻¹,61500 M⁻¹ s⁻¹,B10
2.77 nM,0.00125 s⁻¹,452000 M⁻¹ s⁻¹,B11
2.36 nM,0.00115 s⁻¹,486000 M⁻¹ s⁻¹,B12
2.2 nM,0.00031 s⁻¹,140000 M⁻¹ s⁻¹,B13
3.87 nM,0.000339 s⁻¹,87600 M⁻¹ s⁻¹,B14
1.82 nM,0.000147 s⁻¹,80500 M⁻¹ s⁻¹,B15
0.92 nM,0.00149 s⁻¹,1.62e+06 M⁻¹ s⁻¹,B16
2.32 nM,0.00393 s⁻¹,1.69e+06 M⁻¹ s⁻¹,B17
2.4 nM,0.00498 s⁻¹,2.07e+06 M⁻¹ s⁻¹,B18
0.264 nM,0.000566 s⁻¹,2.14e+06 M⁻¹ s⁻¹,B19

# Biological target: T2, human PD-L1-his
# Test: SPR, Biacore T200, antibody captured on protein A chip, hPD-L1-his 6.25-100 nM as analyte
# Description: The binding affinity of the PD-L1/TIGIT bsAb to recombinant human his-tagged PD-L1 protein was tested by BIACORE®. […] A series of dilutions of human PD-L1 protein (6.25 nM-100 nM) were injected over captured antibody at a flow rate of 10 μL/min. The antigen was allowed to associate for 180 s and dissociate for 1200 s. All the experiments were carried out on a Biacore T200. Data analysis was carried out using Biacore T200 evaluation software.
Kd,koff,kon,Binder
3.97 nM,0.000143 s⁻¹,35900 M⁻¹ s⁻¹,B4
1.15 nM,4.25e-05 s⁻¹,37100 M⁻¹ s⁻¹,B5
5.4 nM,0.000118 s⁻¹,21900 M⁻¹ s⁻¹,B6

# Biological target: T1, His-tagged human TIGIT-ECD protein
# Test: SPR, Biacore T200, antibody captured on protein A chip, hTIGIT-his 0.78-12.5 nM as analyte
# Description: The antibodies were captured by Protein A chip. […] The association phase was 180 s and the dissociation phase was 1200 s.
Kd,koff,kon,Binder
0.103 nM,0.000176 s⁻¹,1.72e+06 M⁻¹ s⁻¹,B4
0.112 nM,0.000139 s⁻¹,1.24e+06 M⁻¹ s⁻¹,B5
0.0912 nM,0.000131 s⁻¹,1.43e+06 M⁻¹ s⁻¹,B6
0.144 nM,0.000172 s⁻¹,1.19e+06 M⁻¹ s⁻¹,B7

# Biological target: T2, human PD-L1-his
# Test: ELISA, plate coated with human His-PD-L1, detection goat anti-human IgG Fc HRP [panel A]
# Description: Binding of the anti-PD-L1/TIGIT bsAb molecules with human PD-L1 was further analyzed by ELISA.
row,EC50 (read off the curve),Binder
1,~1 nM,B4
2,~2 nM,B5
3,~0.8 nM,B6

# Biological target: T3, Tag1-CD47 (UniProt Q08722 19-139)
# T3 construct: Bought kit reagent
# T3 sequence (Q08722 19-139 limits assumed): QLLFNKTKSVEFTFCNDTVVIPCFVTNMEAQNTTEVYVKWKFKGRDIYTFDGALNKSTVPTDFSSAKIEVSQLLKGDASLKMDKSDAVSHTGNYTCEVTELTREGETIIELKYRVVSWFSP
# Test: HTRF CD47/SIRPα binding assay (Cisbio): blocking of Tag2-SIRPa binding to Tag1-CD47; axis numbers -3 to 3 read as log10 of nM
# Description: Fluorescence data were read on a PerkinElmer Envision plate reader using laser as light source.
row,IC50 (read off the curve),Binder
1,~1 nM,B20
2,~1 nM,B21
3,~0.7 nM,B22

# Biological target: T4, human PD-L1 on cells (human, UniProt Q9NZQ7 19-290)
# T4 construct: whole, on cells; also called Raji cells overexpressing human PD-L1; Raji-PD-L1 cells
# T4 sequence (Q9NZQ7 19-290): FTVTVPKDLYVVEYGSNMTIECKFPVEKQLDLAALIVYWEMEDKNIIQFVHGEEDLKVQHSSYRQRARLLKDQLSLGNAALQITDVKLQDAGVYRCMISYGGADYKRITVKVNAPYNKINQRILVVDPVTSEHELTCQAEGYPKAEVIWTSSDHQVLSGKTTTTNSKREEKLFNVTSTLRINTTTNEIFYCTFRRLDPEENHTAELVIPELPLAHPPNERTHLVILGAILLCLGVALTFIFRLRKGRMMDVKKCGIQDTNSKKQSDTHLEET
# Test: flow cytometry on RKO cells, which carry both human CD47 and human PD-L1; APC-labelled secondary antibody; signal not resolved between the two arms
# Description: RKO cells are human colon carcinoma cell lines that express endogenous level of human CD47 and human PD-L1 on the surface. RKO cells were incubated with serial diluted anti-CD47/PD-L1 bispecific antibodies, parental CD47 or PD-L1 monospecific antibodies at 4° C. for 30 minutes. Then cells were washed with FACS buffer three times, followed by incubation with APC-labeled secondary antibody at 4° C. for 30 minutes. Then cells were washed with FACS buffer for three times. Binding was measured by flow cytometry.
row,binding result,Binder
1,binds,B20
